The record followed here is patent publication US20140038834.

In data set [1] the test system is HPLC-purified bovine NfH (phosphorylated).
The subject of data set [2] is dephosphorylated HPLC-purified bovine NfH (treated with alkaline phosphatase).

As to “enterokinase (EK, EC 3.4.21.9, Roche, Cat No 11 334115001)”, the “limited proteolysis, cleavage products seen by immunoblot” value in data set [1] was “The described in vivo cleavage products can be reproduced in vitro by incubation of purified NfH with enterokinase (FIG. 2D, lane 4 and FIG. 2E, lane 8)”; in data set [2] it was “The described in vivo cleavage products can be reproduced in vitro by incubation of purified NfH with enterokinase (FIG. 2D, lane 4 and FIG. 2E, lane 8)”.
